Assay results from patent US20220227882A1 (TRUSTEES OF TUFTS COLLEGE, published 2022).
Residue numbers refer to the chain shown, from its start.

B1: ADP2 Fab (Fab, V domains shown)
VH: EVKLVESGGGLVQPGGSLSLSCAASGFSFPDYYMSWVRQPPGKALEWLGFIRDSANGYTTEYIASVKGRFTFSRDNSQSILYLQMNALRAEDSATYYCARYSRYYGMDYWGQGTSVTVSS
VL: SIVMTQTPKILLVSAGDRVTITCKASQTVNYDVAWYQQKPGQSPKPVIYFASNRYTGVPDRFTGSGFGTDFTFTISTVQAEDLAVYFCQQDYSAPWTFGGGTKLEIK
B2: ADP13 Fab (Fab, V domains shown)
VH: EVQLQQSGPEMVKPGTSVKISCKASGYTFTDYYINWVKQSHGKSLEWIGDISPNIGGATYNPKFKGKAILTVDKSARTAYMELRSLTSEDSAVYCCTRGGSSYPYFYAMDYWGQGTSVTVSS
VL: DIVMSQSPSSLAVSVGEKVTMSCKSSQSLLYSSNQKKYLAWYQQKPGQSPKLLIYWASTRESGVPDRFTGSGSGTDFTLTISSVKAEDLAVYYCQQFYSYPYTFGGGTKLEINR

Tests used:
R482A = target: T1, R482A (Homo sapiens, UniProt P78325); assay: high-throughput flow cytometry, HEK293 cells with mutant ADAM8, high stringency; range in parentheses
T1 construct: expressed on HEK293 cells; also called human ADAM8 point mutant R482A
T1 sequence (ADAM8, looked up): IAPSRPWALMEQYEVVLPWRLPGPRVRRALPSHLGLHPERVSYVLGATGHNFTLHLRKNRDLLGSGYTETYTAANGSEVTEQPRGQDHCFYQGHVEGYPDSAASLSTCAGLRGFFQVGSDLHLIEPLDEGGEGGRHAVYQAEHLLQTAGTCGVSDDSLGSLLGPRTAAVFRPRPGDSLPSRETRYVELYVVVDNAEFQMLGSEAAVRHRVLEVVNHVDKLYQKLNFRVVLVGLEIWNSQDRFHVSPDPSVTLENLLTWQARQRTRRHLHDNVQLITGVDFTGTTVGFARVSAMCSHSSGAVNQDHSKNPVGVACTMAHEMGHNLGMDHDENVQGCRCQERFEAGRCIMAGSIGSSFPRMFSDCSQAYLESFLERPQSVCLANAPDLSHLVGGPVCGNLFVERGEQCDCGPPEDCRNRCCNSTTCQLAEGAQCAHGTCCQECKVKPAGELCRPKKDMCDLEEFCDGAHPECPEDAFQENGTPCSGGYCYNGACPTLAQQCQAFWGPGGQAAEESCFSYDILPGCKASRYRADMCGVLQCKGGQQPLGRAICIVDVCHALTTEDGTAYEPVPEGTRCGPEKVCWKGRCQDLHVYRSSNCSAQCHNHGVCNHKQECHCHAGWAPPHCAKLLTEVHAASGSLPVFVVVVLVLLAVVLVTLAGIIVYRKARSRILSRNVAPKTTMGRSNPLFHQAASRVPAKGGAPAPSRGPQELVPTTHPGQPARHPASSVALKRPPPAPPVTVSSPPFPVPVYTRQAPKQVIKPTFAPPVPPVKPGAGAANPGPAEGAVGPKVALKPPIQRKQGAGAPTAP
Experimental: (§1) A variety of experimental parameters were optimized for high-throughput flow cytometry including blocking buffer, and primary and secondary antibody concentrations, to identify the optimal conditions for screening. Through these studies ADP2 and ADP13 were determined to be high affinity binding antibodies.
(§2) Thus, for these studies antigen-binding fragments (Fabs) of ADP2 and ADP13, which bind with lower affinity than the full antibody, were generated. In addition, higher binding stringency conditions were tested, such as increased pH, salinity, and temperature, and/or increased washing, to weaken binding sufficiently to allow identification of critical binding residues in flow cytometry. The final experimental flow cytometry conditions were: primary antibody incubation with ADP2 Fab (0.50 μg/ml), ADP13 Fab (5.00 μg/ml) and Control Ab (0.16 μg/ml) for 60 minutes in flow cytometry buffer containing 10% goat serum in PBS (Ca²⁺ and Mg²⁺ free). […] Samples were washed three times after primary antibody incubation and twice after secondary antibody incubation with PBS (Ca²⁺ and Mg′ free). Next, HEK293 cells expressing WT or mutated ADAM8 proteins or EV DNA were incubated with ADP2 or ADP13 Fabs or Control Ab at their optimal concentrations. Fab binding was detected using Alexa Fluor 488-conjugated secondary antibodies and mean cellular fluorescence determined using the Intellicyt iQue flow cytometry platform. […] This counter-screen strategy facilitates the exclusion of mutants that are locally misfolded or that have an expression defect. Binding of each test Fab to each mutant clone in the alanine scanning library was determined, in duplicate, by high-throughput flow cytometry.

R431A = target: T2, R431A (Homo sapiens, UniProt P78325); assay: as above
T2 construct: expressed on HEK293 cells; also called human ADAM8 point mutant R431A
T2 sequence (ADAM8, looked up): T1 sequence (ADAM8, looked up) with R415A, A466R
Experimental: as §1, §2

| Binder | Binding Reactivity (% WT) (R482A) | Binding Reactivity (% WT) (R431A) |
| --- | --- | --- |
| B1 | 113 % WT |  |
| B2 |  | 79.6 % WT |
